Experimental data as given in patent publication US20220064291A1, “METHODS OF USING BUTYROPHILIN ANTIBODIES FOR TREATING HIV INFECTION” (Merck Sharp & Dohme Corp., priority 2018, published 2022).

Tests used:
BTN3A2 = biological target: T1, BTN3A2 (Homo sapiens, UniProt P78410); test: BTN isoform binding of yeast display antibodies (Octet isoform binding profile, binding affinity); conditions: Table 4; Yes/No; hIgG1-297A isotype
T1 construct: Fc (Fc-chimera); purchased R&D systems; host or cells: HEK293
Procedure: (§1) De novo antibody discovery for butyrophilin isoforms was executed on pre-immune yeast display libraries. The soluble proteins used in the yeast display selections were biotinylated recombinant proteins of HEK293-expressed Fc-chimeras BTN2A2, BTN3A1, BTN3A2, and BTN3A3 from R&D systems. All proteins were analyzed before use by Biacore binding against control antibody anti-BTN Monoclonal Antibody (eBioBT3.1 (20.1, BT3.1), SEC, SDS-PAGE, and endotoxin.
(§2) Each biotinylated BTN isoform was subjected to pre-immune yeast display libraries for selections. The selections started with MACS (Magnetic Bead-based Cell Separation) cell separations for the first two rounds to enrich clones that bind to the targeted BTN isoforms, and applied fluorescence activated cell sorting (FACS) at later rounds to isolate clones that were with high affinity and isoform specificity. Due to the high sequence homology among all BTN isoforms, isoform-specific selection pressures were achieved by introducing ten-fold molar ratio of the non-biotinylated BTN isoforms to the biotinylated and selection-targeted BTN isoforms in the later rounds of the selections.
(§3) The isolated clones were then sequenced to identify the unique antibodies and screened for isoform binding profiles by Octet. To ensure the isolated antibodies have broad-epitopic coverage, all the antibodies were subjected to binning against the benchmark antibodies: BTN20.1 (Biolegend, agonist) and BTN103.2 (Creative Biolabs, antagonist). Purified antibodies were submitted for functional assay screening, as described below.
(§4) Given the sequence homology between BTN3A isoforms (>90%), this outcome is expected. Within all 105 antibodies from the BTN3A1 campaign and 125 antibodies from the BTN3A2 campaign, each antibody was characterized into one of the bins: Biolegend-bin, Creative-Biolabs-bin, Empty Set, or Overlapping.
(§5) Using the protocols described in detail in Example 2B and Example 3A, anti-BTN3A antibodies were screened for a functional role in T cell activation and reactivation of latent HIV. Antibody screens were conducted using HIV latent CD4+ T cells (prepared as described in Example 1A). T cell activation was quantified by production of IFNγ, and reactivation of latent HIV was quantified by luciferase assay. […] Detailed information on binding profile with binding affinity (KD) (Table 4) and antibody isotype and sequence (Table 5) are provided for two representative antibodies from each of the three functional categories observed.

BTN3A3 = biological target: T2, BTN3A3 (Homo sapiens, UniProt O00478); test: as above; conditions: Table 4; Yes/No; hIgG1-297A isotype
T2 construct: Fc (Fc-chimera); purchased R&D systems; host or cells: HEK293
Procedure: as §1, §2, §3, §4, §5

BTN3A1 = biological target: T3, BTN3A1 (Homo sapiens, UniProt O00481); test: as above; conditions: Table 4; Yes/No; hIgG1-297A isotype
T3 construct: Fc (Fc-chimera); purchased R&D systems; host or cells: HEK293
Procedure: as §1, §2, §3, §4, §5

[1] = tested on: latent HIV in HIV latent primary CD4+ T cells; test: Latent virus reactivation by plate-coated anti-BTN3A antibody plus anti-CD3, Nano-Glo Luciferase Assay; type: cell-based, HIV-1; conditions: with anti-CD3, Yes/No
Procedure: (§6) Latent HIV-1 infected primary CD4+ T cells were generated following a protocol licensed from the laboratory of Jonathan Karn (Case Western Reserve University, Cleveland, Ohio). Briefly, naive CD4^+ T cells isolated from 2 healthy human donors were propagated for 6 days in growth medium supplemented with Dynabeads Human T-Activator CD3/CD28 (25 μl/10^6 cells) and Th17 polarizing cytokines: TGF-β1 (5 ng/ml), IL-4 (10 ng/ml), IFNγ (10 ng/ml), IL-1β (10 ng/ml), IL-6 (30 ng/ml), IL-23 (50 ng/ml), IL-8 (15 ng/ml), IL-10 (10 ng/ml). […]. Reactivation of HIV-1 proviruses from latently infected cells was performed by treatment with Dynabeads Human T-Activator CD3/CD28 (25 μl/10^6 cells) or PMA/Ionomycin.
To assess if BTN3A modulation has impact on HIV latency reversal, sterile 96-well flat bottom tissue culture plates (Corning) were coated with various concentrations of anti-CD3 and anti-BTN3 20.1 antibodies (10 μg/ml, 3 μg/ml, 1 μg/ml, and 0.3 μg/ml) in PBS for 16h in a 4° C. refrigerator. As controls, plates were coated with various concentrations of anti-CD3 antibody and isotype control antibody (10 μg/ml, 3 μg/ml, 1 μg/ml, and 0.3 μg/ml), anti-CD3 antibody alone, or isotype control antibody alone. The next day, antibodies were aspirated using a multichannel pipette and HIV latent primary CD4+ T cells from two donors were added to the antibody coated plates in duplicates at 125,000 cells/well in 200 ul of primary cell media (RPMI with 10% FBS, 50 μg/ml Primocin™). At 24 h post treatment latent virus reactivation was measured using a Nano-Glo® Luciferase Assay (Promega) (FIG. 5).
as §5

[2] = tested on: HIV latent primary CD4+ T cells; test: T cell activation by plate-coated anti-BTN3A antibody plus anti-CD3, IFNγ expression (V-PLEX); type: cell-based, human; conditions: production of IFNγ, with anti-CD3, Yes/No
Procedure: as §6
We next addressed if treatment with anti-BTN3A antibodies reverses BTN3A-mediated blockade in T cell activation. To assess this, sterile 96-well flat bottom tissue culture plates (Corning) were coated with various concentrations of anti-CD3 and anti-BTN3 20.1 antibodies (10 μg/ml, 3 μg/ml, 1 μg/ml, and 0.3 μg/ml) in PBS for 16 h in a 4° C. refrigerator. As controls, plates were coated with various concentrations of anti-CD3 antibody and isotype control antibody (10 μg/ml, 3 μg/ml, 1 μg/ml, and 0.3 μg/ml), anti-CD3 antibody alone, or isotype control antibody alone. The next day, antibodies were aspirated using a multichannel pipette and HIV latent primary CD4+ T cells from two donors were added to the antibody coated plates in duplicates at 125,000 cells/well in 200 ul of primary cell media (RPMI with 10% FBS, 50 μg/ml Primocin™). At 72 h following treatment T cell activation was measured based on IFNγ expression using a V-PLEX proinflammatory panel 1 human assay (Meso Scale Discovery, Rockville, Md.) (FIG. 4).
as §5

T2 sequence (O00478 with tags, fused parts or gaps limits assumed): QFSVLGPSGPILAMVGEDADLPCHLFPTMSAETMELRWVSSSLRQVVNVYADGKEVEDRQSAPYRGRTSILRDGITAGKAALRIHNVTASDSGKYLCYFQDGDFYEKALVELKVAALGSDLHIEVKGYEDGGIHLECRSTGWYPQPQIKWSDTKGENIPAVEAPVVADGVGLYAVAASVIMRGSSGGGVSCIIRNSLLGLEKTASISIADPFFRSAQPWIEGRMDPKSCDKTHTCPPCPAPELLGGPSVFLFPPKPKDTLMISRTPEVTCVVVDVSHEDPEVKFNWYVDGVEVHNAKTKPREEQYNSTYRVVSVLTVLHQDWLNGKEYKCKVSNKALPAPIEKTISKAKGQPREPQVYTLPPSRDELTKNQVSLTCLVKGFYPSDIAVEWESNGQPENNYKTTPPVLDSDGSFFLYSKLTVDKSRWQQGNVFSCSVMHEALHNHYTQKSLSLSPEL
T3 sequence (O00481 with tags, fused parts or gaps limits assumed): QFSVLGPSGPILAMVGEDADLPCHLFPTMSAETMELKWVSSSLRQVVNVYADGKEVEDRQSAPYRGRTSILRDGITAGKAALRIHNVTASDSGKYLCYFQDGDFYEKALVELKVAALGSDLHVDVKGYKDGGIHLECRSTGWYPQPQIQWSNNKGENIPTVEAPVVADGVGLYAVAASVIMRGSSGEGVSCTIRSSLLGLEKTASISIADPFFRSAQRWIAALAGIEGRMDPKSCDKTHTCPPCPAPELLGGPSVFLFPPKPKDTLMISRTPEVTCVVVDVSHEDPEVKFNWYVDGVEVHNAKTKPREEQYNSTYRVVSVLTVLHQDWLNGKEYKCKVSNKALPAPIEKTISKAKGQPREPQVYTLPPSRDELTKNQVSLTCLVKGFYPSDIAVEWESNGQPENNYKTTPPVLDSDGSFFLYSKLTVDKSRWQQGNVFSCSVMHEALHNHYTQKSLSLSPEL
T1 sequence (P78410 with tags, fused parts or gaps limits assumed): as the sequence (O00478 with tags, fused parts or gaps limits assumed) above, with R37K, D120N, I123V, K149Q, D152N, T153A, A174E, S184G, G187E counted along it

B1: 1G (antibody, V domains shown)
VH: QVQLVQSGAEVKKPGASVKVSCKASGYTFTSYGISWVRQAPGQGLEWMGWISAYNGNTNYAQKLQGRVTMTTDTSTSTAYMELRSLRSDDTAVYYCARLGATVAYFDLWGRGTLVTVSS
VL: EIVLTQSPATLSVSPGERATLSCRASQSVSSNLAWYQQKPGQAPRLLIYGASTRATGIPARFSGSGSGTEFTLTISSLQSEDFAVYYCQQDVYWPFTFGGGTKVEIK
BTN3A2 Binding (BTN3A2): Yes
BTN3A3 Binding (BTN3A3): Yes
BTN3A1 Binding (BTN3A1): Yes
Antibody function HIV reactivation [1]: No
Antibody function T cell activation [2]: Yes

B2: 2A (antibody, V domains shown)
VH: QVQLVQSGAEVKKPGASVKVSCKASGYTFTSYYIHWVRQAPGQGLEWMGIINPSGGSTSYAQKFQGRVTMTRDTSTSTVYMELSSLRSEDTAVYYCARATWEALHYWGQGTLVTVSS
VL: EIVMTQSPATLSVSPGERATLSCRASQSVGSNLAWYQQKPGQAPRLLIYGASTRATGIPARFSGSGSGTEFTLTISSLQSEDFAVYYCQQYYAWPRTFGGGTKVEIK
BTN3A2 Binding (BTN3A2): No
BTN3A3 Binding (BTN3A3): Yes
BTN3A1 Binding (BTN3A1): Yes
Antibody function HIV reactivation [1]: Yes
Antibody function T cell activation [2]: No

B3: 3B (antibody, V domains shown)
VH: QVQLVQSGAEVKKPGASVKVSCKASGYTFTSYYMHWVRQAPGQGLEWMGIINPSGGSTSYAQKFQGRVTMTRDTSTSTVYMELSSLRSEDTAVYYCARPSGDYSGYDALDVWGQGTMVTVSS
VL: EIVLTQSPATLSLSPGERATLSCRASQSVSSYLAWYQQKPGQAPRLLIYDASNRATGIPARFSGSGSGTDFTLTISSLEPEDFAVYYCQQDPYWPITFGGGTKVEIK
BTN3A2 Binding (BTN3A2): Yes
BTN3A3 Binding (BTN3A3): Yes
BTN3A1 Binding (BTN3A1): Yes
Antibody function HIV reactivation [1]: Yes
Antibody function T cell activation [2]: Yes

B4: 3A (antibody, V domains shown)
VH: QVQLVQSGAEVKKPGASVKVSCKASGYTFTSYYMHWVRQAPGQGLEWMGIINPGGGSTSYAQKFQGRVTMTRDTSTSTVYMELSSLRSEDTAVYYCARDAGHDYGDMAYWGQGTLVTVSS
VL: DIQMTQSPSTLSASVGDRVTITCRASQSISSWLAWYQQKPGKAPKLLIYKASSLESGVPSRFSGSGSGTEFTLTISSLQPDDFATYYCQQYRSFPTFGGGTKVEIK
BTN3A2 Binding (BTN3A2): No
BTN3A3 Binding (BTN3A3): Yes
BTN3A1 Binding (BTN3A1): Yes
Antibody function HIV reactivation [1]: Yes
Antibody function T cell activation [2]: Yes
